For test [1], the target named is Isoform 121 of human VEGF-A (Peprotech) (human) (UniProt P15692). The test is described as follows: ELISA, antigen coated at 5 µg/mL, KDR-Fc 0.5 µg/mL.
Test [2] has the same target. The test is described as follows: ELISA, antigen coated at 5 µg/mL, KDR-Fc 1.0 µg/mL.
For test [3] the target is unchanged. The test is described as follows: ELISA, antigen coated at 5 µg/mL, KDR-Fc 0.25 µg/mL.
Test [4] shares this target. The test is described as follows: ELISA, antigen coated at 5 µg/mL, KDR-Fc 0.125 µg/mL.
For test [5] the target is unchanged. The test is described as follows: ELISA on coated antigen, 20 µg/mL; negative control.
For test [6], the target named is P6447aa-VEGF fusion protein (human (VEGF part); Neisseria meningitidis (P64K part)). Described as above.

Experimental findings from patent US20100151566A1 are described below.

Chain of Isoform 121 of human VEGF-A (Peprotech) (human) (P15692 other isoform, or with tags, fused parts or gaps): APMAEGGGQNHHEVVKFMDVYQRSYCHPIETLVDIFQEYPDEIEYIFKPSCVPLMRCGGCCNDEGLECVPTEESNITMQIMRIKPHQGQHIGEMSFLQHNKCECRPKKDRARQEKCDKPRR
Chain of soluble human receptor KDR-Fc (Sigma) (P35968 20-764 limits assumed): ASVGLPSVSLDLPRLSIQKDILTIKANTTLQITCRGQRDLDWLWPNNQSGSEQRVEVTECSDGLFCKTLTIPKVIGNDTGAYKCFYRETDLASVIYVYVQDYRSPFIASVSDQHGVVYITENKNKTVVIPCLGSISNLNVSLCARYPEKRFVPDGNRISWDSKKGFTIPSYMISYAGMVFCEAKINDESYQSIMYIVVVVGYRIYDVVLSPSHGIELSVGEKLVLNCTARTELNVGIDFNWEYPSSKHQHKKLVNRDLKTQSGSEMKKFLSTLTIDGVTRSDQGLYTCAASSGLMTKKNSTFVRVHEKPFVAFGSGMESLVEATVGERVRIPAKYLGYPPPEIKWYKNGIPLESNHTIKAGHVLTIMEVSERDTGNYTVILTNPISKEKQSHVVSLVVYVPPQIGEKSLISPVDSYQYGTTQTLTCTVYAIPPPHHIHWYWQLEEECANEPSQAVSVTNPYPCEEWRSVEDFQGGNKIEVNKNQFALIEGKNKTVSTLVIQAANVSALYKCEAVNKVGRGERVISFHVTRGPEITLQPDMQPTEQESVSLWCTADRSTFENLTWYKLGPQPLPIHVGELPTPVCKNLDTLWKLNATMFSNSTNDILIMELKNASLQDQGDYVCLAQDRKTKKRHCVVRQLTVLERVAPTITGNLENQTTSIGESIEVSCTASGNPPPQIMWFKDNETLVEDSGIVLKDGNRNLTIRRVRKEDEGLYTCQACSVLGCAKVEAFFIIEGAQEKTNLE

Take “soluble human receptor KDR-Fc (Sigma) (from UniProt P35968 20-764) (Fc fusion)”: the absorbance at 492 nm in test [1] was 1.27 OD 492 nm; in test [2] it was 1.48 OD 492 nm; in test [3], 1.04 OD 492 nm; in test [4], 0.76 OD 492 nm.

On to “TheraCIM (anti EGF receptor humanized IgG1 antibody; CIMAB SA, Havana)”, for which the absorbance at 492 nm stood at 0.097 OD 492 nm in test [5] and 0.112 OD 492 nm in test [6].
